# Test results: PMC2629732
# T1: TRF3 (UniProt Q6SJ95 1-350)
# T1 sequence: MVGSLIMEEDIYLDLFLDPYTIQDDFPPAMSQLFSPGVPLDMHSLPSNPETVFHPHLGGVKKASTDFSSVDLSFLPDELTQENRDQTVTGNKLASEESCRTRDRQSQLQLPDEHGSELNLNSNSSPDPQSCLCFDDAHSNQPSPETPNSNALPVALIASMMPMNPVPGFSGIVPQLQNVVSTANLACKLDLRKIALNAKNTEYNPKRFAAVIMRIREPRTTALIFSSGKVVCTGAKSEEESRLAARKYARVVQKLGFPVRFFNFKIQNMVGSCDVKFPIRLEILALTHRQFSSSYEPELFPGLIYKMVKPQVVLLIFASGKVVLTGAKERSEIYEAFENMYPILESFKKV
# T2: TAF3;TRF3 (mouse?;mouse?, UniProt Q5HZG4;Q6SJ95 1-932;1-350, |)
# T2 sequence 1: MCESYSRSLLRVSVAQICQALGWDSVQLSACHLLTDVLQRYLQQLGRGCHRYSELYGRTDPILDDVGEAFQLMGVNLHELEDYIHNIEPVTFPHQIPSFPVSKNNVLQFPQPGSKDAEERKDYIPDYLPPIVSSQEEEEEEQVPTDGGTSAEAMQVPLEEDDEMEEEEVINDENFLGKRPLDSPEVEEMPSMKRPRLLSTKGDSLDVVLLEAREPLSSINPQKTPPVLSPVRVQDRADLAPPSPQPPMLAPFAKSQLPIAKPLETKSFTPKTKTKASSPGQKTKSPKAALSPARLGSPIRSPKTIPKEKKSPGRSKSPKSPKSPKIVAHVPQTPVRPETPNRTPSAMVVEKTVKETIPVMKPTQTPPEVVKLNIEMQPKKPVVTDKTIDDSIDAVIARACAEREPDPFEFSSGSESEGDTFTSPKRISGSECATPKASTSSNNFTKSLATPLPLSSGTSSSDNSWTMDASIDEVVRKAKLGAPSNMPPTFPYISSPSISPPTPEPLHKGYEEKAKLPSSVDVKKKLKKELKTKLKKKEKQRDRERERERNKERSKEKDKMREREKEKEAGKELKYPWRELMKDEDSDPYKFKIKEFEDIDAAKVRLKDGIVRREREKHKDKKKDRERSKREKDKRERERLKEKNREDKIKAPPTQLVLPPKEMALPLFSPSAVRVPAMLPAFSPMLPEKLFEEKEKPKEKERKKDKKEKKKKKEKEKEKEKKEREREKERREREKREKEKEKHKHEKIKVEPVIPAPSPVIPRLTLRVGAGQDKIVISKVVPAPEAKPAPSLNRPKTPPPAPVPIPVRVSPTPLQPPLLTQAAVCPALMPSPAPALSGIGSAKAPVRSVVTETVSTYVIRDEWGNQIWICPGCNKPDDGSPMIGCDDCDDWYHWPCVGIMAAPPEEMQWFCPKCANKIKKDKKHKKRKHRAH
# T2 sequence 2: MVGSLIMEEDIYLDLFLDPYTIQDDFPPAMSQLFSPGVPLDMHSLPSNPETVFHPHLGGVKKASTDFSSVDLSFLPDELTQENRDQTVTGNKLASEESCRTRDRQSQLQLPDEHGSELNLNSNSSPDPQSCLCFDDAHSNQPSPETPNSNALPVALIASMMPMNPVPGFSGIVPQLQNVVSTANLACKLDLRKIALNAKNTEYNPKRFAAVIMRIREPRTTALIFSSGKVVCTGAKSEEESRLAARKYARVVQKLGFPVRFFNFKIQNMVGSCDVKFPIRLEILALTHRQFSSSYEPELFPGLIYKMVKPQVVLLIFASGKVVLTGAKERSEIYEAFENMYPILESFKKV
# T3: TAF3 (UniProt Q5HZG4 1-932)
# T3 sequence: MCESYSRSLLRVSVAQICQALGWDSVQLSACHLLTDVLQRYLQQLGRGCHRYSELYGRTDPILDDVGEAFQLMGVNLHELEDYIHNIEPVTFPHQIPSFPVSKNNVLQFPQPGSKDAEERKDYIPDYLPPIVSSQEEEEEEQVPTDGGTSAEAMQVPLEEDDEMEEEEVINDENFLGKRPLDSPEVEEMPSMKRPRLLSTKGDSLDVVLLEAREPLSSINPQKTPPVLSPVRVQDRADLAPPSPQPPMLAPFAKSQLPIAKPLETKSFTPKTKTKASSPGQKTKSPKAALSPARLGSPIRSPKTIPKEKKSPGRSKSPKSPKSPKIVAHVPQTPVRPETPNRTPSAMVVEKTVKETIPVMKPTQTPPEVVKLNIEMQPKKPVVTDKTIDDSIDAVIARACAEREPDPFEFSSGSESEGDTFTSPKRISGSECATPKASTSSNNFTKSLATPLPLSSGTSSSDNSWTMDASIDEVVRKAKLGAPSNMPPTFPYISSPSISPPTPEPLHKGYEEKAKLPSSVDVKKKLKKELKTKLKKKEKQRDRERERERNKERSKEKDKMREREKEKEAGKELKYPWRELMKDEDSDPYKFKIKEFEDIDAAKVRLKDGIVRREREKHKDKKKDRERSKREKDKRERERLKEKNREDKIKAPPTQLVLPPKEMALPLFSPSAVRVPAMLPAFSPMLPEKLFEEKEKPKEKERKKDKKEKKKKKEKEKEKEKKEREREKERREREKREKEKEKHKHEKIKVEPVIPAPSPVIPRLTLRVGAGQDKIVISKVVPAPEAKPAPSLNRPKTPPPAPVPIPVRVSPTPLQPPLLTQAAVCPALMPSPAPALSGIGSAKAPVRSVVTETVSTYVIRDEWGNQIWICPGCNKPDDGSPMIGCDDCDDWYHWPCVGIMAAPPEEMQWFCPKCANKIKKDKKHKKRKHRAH
# Tests used:
# Assay in all cases: EMSA
# [1] = molecular target: T1, TRF3
# [2] = molecular target: T2, TAF3;TRF3
# [3] = molecular target: T3, TAF3
binder,measurement,setting,value
Myogenin TATA probe / TATA competitor (dsDNA) DNA 1: GAGGGTTTAAATGGCACCCAG DNA 2: CTGGGTGCCATTTAAACCCTC,binding result,[1],binds
same,binding result,[2],binds
same,binding result,[3],no binding
